Reference: patent publication US20210238281A1 (INSTITUT NATIONAL DE LA SANTE ET DE LA RECHERCHE MEDICALE …, published 2021)
Changes are numbered by the printed parent chain.

T1: recombinant human MOG protein (human, UniProt Q16653 30-154, limits assumed)
T1 construct: Bought recombinant protein; also called HMOG
T1 sequence (looked up): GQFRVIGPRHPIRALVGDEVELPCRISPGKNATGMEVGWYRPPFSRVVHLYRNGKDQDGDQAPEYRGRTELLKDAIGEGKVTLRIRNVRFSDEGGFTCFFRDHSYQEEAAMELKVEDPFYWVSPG

T2: recombinant murine MOG protein (murine, UniProt Q61885 29-156, limits assumed)
T2 construct: Bought recombinant protein; also called MMOG
T2 sequence (looked up): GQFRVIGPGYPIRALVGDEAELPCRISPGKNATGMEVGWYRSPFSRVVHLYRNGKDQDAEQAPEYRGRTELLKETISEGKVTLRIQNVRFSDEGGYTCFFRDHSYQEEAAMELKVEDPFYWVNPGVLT

B1: anti-MOG MO3J-38 antibody (scFv, V domains shown)
VH: QVQLVQSGPEVRKPGASVKVSCRASGYTFTSNDINWVRQAAGQGLEYLGWLHPKSGGTGYAQKFQGRVTMTRDTSISTAYLELSNLTSDDTAVYYCARVSFDEVIDFWGQGTLVTVSS
VL: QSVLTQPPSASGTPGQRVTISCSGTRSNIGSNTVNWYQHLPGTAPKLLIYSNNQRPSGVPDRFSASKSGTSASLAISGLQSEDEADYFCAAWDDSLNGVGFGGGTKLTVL
B2: anti-MOG MO3J-37 antibody (scFv, V domains shown)
VH: EVQLVESGGGLVQPGRSLRLSCAASGFTFDDYAMHWVRQAPGKGLEWVSGISWNSGSIGYADSVKGRFTISRDNAKNSLYLQMNSLRAEDTALYYCAKDMRAVAGTEGAFDIWGQGTMVTVSS
VL: QSVVTQPPSMSAAPGQKVTISCSGSSSNIGNNYVSWYQQLPGTAPKLLIYENNKRPSGISDRFSGSKSGTSATLGITGLQTGDEADYYCATGDSGMTLVFGGGTKLTVL
B3: anti-MOG MO3J-52 antibody (scFv, V domains shown)
VH: QMQLVQSGAEVKKPGSSVKVSCKASGGTFSSYAISWVRQAPGQGLEWMGGIIPIFGTANYAQKFQGRVTITADESTSTAYMELSSLRSEDTAVYYCARAREGLLVNYYGMDVWGQGTLVTVSS
VL: DIQMTQSPSTLSASVGDRVTTTCRASQGISNYLAWFQQKPGKAPKSLIYAASSLQSGVPSRFSGGGSGTDFTLTINSLQPEDFATYYCLHDYNYPTFGQGTKVEIK
B4: anti-MOG MO4B-43 antibody (scFv, V domains shown)
VH: DEVQLLESGGGLVPGGSLRLSCEVSGFSFSNHAMHWVRQAPGKALEHLSVLGSDGRSTYYADSVKGRFTISRDISKTTVYLQMGSLRPGDMGVYYCARGLYGDHWDASDLWGQGTMVTVSS
VL: EIVMTQSPATLSVSPAERVILSCRASQSVGNNVAWFQQKPGQAPRLLIHGASSRATGIPTRFSGSGSGTELTLTISSLQSEDFAVYYCQQYGSAPITFGQGTRLEIK
B5: anti-MOG MO3F-02 antibody (scFv, V domains shown)
VH: QVQLQQSGPGLVKPSQTLSLTCAISGDSVSSNSAAWNWIRKSPSRGLEWLGRTYYRSKWYNDYAVSVKSRITINPDTSKNQFSLQLSSVTPEDTAVYYCARASAGTFGYWGQGTLVTVSS
VL: DIVMTQSPSSLSASVGDRVTMTCRASQTINTYLNWYQQKPGKAPKLLIYAASTLQSGVPSRFSGSGSGTDFSLTISSLQPEDFATYYCQHGYNNPPFTFGPGTKVDIK
B6: anti-MOG MO4B-42 antibody (scFv, V domains shown)
VH: MAGSLQVDQVQLVQSGAEVKRPGESLKISCEGSGYSFTSSWIGWVRQMPGKGLECMGIIYPGDSDTRYSPSFQGHVTISADKSISTAYLQWSSLRASDTAMYYCARAYHSDYGFDFWGQGTLVTVSS
VL: EIVLTQPLSVSESPGKTVTISCTRSSGSIANNFVQWYQRRPGSSPTTVIYENDQRPSGVPDRFSGSIDSSSNSASLTITGLETQDEADYYCQSFNDDVGGGNSGGGTK
B7: anti-MOG MO3J-12 antibody (scFv, V domains shown)
VH: EVQLLESGGGLVQPGGSLRLSCAASGFTFSTYWMHWVRQAPGRGLVWVSRINTDGSSTDYADSVKGRFTISRDNAKNTLYLQMNSLRAEDTAVYSCARGGQLVAAANDNWLDPWGQGTLVTVSS
VL: AIQLTQSPSSLSASAGDRVTITCRASQSINNYLNWYQQKPGKAPKVLIYGASNLQSGVPSRFSGSGSGTDFTLTISSLQPEDFATYYCQQSYSTPRTFGQGTKVEIK
B8: anti-MOG MO3J-40 antibody (scFv, V domains shown)
VH: EVQLVESGAEVKKPGESLKISCKGSGYTFTSNWIGWVRQMPGKGLEWMGIIYPGDSDTRYSPSFQGQGTISADKSISTAYLQWSSLRASDTAMYYCARASIAVRPHIDYWGQGTLVTVSS
VL: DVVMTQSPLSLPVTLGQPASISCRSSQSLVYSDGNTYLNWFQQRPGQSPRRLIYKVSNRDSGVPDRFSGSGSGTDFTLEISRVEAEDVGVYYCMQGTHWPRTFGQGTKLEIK
B9: anti-MOG MO3J-43 antibody (scFv, V domains shown)
VH: EVQLVESGGGLVKPGGSLRLSCAASGFTFSDYYMSWIRQAPGKGLEWVSYISSSGNTIYYADSVKGRFTISRDNAKNSLYLQMNSLRAEDTAVYYCAKDSPVPTVWGQGTLVTVSS
VL: QSVVTQPPSVSGAPGQRVSISCTGGSSNIGADYDVHWYQQLPGTAPKLLIYGNNNRPSGVPDRFSGSKSGTSASLAISGLQPEDEAVYYCQSYDSGLRSSVFGGGTKLTVL
B10: anti-MOG MO3J-26 antibody (scFv, V domains shown)
VH: QVQLVQSGAEVKKPGSSVKVSCKASGGTFSTYTLSWVRQAPGKGLEWMGGFDPEDGETIYAQKFQGRVTMTEDTSTDTAYLELSSLRSDDTAVYYCAADEFWGPGTLVTVSS
VL: QSVLTQPPSVSAAPGQTVTISCSGSSSNIGNNYVSWYQQLPGTAPKLLIYDNNKRPSGIPDRFSGSKSGTSATLGITGLQTGDEADYYCGTWDSSLSAVVFGGGTKLTVL
B11: anti-MOG MO3J-05 antibody (scFv, V domains shown)
VH: EVQLVQSGAEVKKPGASVKVSCKASGYTFTSYGISWVRQAPGQGLEWMGWISAYNGNTNYAQKLQGRVTMTTDTSTSTAYMELRSLRSDDTAVYYCARNMGCSSTSCFVSWFDPWGQGTLVTVSS
VL: not shown
B12: anti-MOG MO3J-19 antibody (scFv, V domains shown)
VH: B11 VH
VL: QSVLTQPPSASGTPGQRVTISCSGSTSNIGSQIVNWYQQLPGTAPRLIIYNDNERPSGVSDRFSGSKSDTSASLAISGLQSEDEADYYCAAWDDSLNGYVFGTGTKVTVL
B13: anti-MOG MO3J-51 antibody (scFv, V domains shown)
VH: B11 VH with R87G
VL: B10 VL with Q16R, T17K, S35A, D51E, D61G, G69A, S94N, V99W
B14: anti-MOG MO3J-44 antibody (scFv, V domains shown)
VH: QVQLVQSGAEVRKPGASVKISCQISGYNFISYTIQWVRQAPGQRPEWMGWINSGNGNTKYSQKFQGRVTFTRDTSTSTAYMELSSLRSEDTAVYYCARSGIGPWGQGTLVTVSS
VL: EIVLTQPPDLQSVTPKKKVTITCRASQSIGNSLHWCQQKPDQSPKLLIKYASQSISGVPSRFSGSGSGTDFTLTINSLEAEDAATYYCHQSSSLPFTFGPGTKVDIK
B15: anti-MOG MO3J-23 antibody (scFv, V domains shown)
VH: DQVQLVQSGAEVKPGASVKVSCKASGYTFTSYGISWVRQAPGQGLEWMGWISAYNGNTNYAQKLQGRVTMTTDTSTSTAYMELRSLRSDDTAVYYCARDPVGSLRPYYMDVWGEGTTVTVSS
VL: DIVMTQSPSTLSASVGDRVTITCRASQSISTWLAWYQQKPGKAPKLLIYAASSLQSGVPSRFSGSGSGTDFTLTISSLQPEDFATYYCQQSYSTPRTFGQGTKVEIK

Columns and labels:
[1] = molecular target: T1, recombinant human MOG protein; experiment: phage-scFv ELISA on coated recombinant human MOG (0.5 µg/well), anti-M13 HRP, OD450 over BSA background
Description: (§1) The binding characteristics of the scFvs expressed on the surface of the phages isolated during the screening were determined using an ELISA assay using the recombinant MOG protein (R&D system). Along with the selected clones, phage-scFv-8-18C5 is expressed to serve as a positive control for ELISA. Briefly, phage-scFv were produced in the form of clones isolated on a 96-well plate in 800 μl of 2YT/ampicillin/glucose cultures infected with the helper phage M13K07 (as described previously). The phages produced overnight at 26° C. were then recovered in the supernatants after 30 minutes of centrifugation at 3000 g. These supernatants were directly diluted 1/2 in PBS/4% BSA/0.1% Tween 20 and tested on Maxisorp immunoplates previously coated with 0.5 μg of human or murine MOG or PBS (background control (bdf) in BSA)/well and blocked with 4% BSA in PBS. After incubation for 2 hours at 37° C., the wells were washed 3 times with PBS/0.1% Tween-20 and bound phages-scfv were detected with anti-M13 HRP antibody (GE Healthcare). The plate is read at 450 nm (OD) on a plate reader (TECAN). The results are expressed as a ratio: OD on target/OD bdf (OD on an uncoated plate saturated with BSA) and the ratios are compared with that obtained for the positive control.

[2] = molecular target: T2, recombinant murine MOG protein; experiment: phage-scFv ELISA on coated recombinant murine MOG (0.5 µg/well), anti-M13 HRP, OD450 over BSA background
Description: as §1

Binder	ratio OD on target/OD bdf [1] [ratio]	ratio OD on target/OD bdf [2] [ratio]
B1	18.4	5.59
B2	12.9	6.66
B3	16.3	6.86
B4	5.82	9.56
B5	13.8	22.1
B6	6.11	6.68
B7	16.4	8.99
B8	21	6.48
B9	20.8	8.26
B10	14.6	3.62
B11	16.4	7.53
B12	11.7	5.66
B13	14.6	4.76
B14	14.5	6.61
B15	15.9	7.46
